Results: publication PMC12121997

What was measured:
[1] = molecular target: Nucleosome core particle: Cse4-containing histone octamer wrapped with Widom 601 DNA (S. cerevisiae | K. lactis) (UniProt P36012); assay: optical trap assay (bead-microtubule binding, then rupture force); 40 nM His6-NCPs held on anti-His6 polystyrene beads; 10 nM OA or 20 nM Mif2, 10 nM 2D-MIND, 10 nM Ndc80c and 5 nM Dam1c free in solution; bead brought by laser trap to the dynamic plus end of a surface-anchored microtubule; 1x BRB80, 1 mM GTP, 16 uM tubulin, room temperature; 1 pN preload, then ramping force until detachment; negative controls with OA or Mif2 omitted
[2] = molecular target: Nucleosome core particle: Cse4-containing histone octamer wrapped with chimeric centromeric DNA (CCEN) (S. cerevisiae | K. lactis) (UniProt P36012); assay: as above

percent of NCP-coated beads that bound microtubules [1]: > 78%
percent of NCP-coated beads that bound microtubules [2]: > 78%
Substance: Mif2-linker-(27-392)MBP (from UniProt P35201 1-549) (natural protein)
